The chains are these.
B1: SEQ ID NO 155 (peptide)
peptide: H[Aib]EGS[αMeF]TSDV[αMeS]S[αMeF]LEGEAAK([γGlu-Stearoyl])E[αMeF]IA[αMeF]VV[αMeK]GG-NH2
modifications: N-terminus assumed
SMILES: CCCCCCCCCCCCCCCCCC(=O)N[C@@H](CCC(=O)NCCCC[C@H](NC(=O)[C@H](C)NC(=O)[C@H](C)NC(=O)[C@H](CCC(=O)O)NC(=O)CNC(=O)[C@H](CCC(=O)O)NC(=O)[C@H](CC(C)C)NC(=O)[C@](C)(Cc1ccccc1)NC(=O)[C@H](CO)NC(=O)[C@](C)(CO)NC(=O)[C@@H](NC(=O)[C@H](CC(=O)O)NC(=O)[C@H](CO)NC(=O)[C@@H](NC(=O)[C@](C)(Cc1ccccc1)NC(=O)[C@H](CO)NC(=O)CNC(=O)[C@H](CCC(=O)O)NC(=O)C(C)(C)NC(=O)[C@@H](N)Cc1c[nH]cn1)[C@@H](C)O)C(C)C)C(=O)N[C@@H](CCC(=O)O)C(=O)N[C@@](C)(Cc1ccccc1)C(=O)N[C@H](C(=O)N[C@@H](C)C(=O)N[C@@](C)(Cc1ccccc1)C(=O)N[C@H](C(=O)N[C@H](C(=O)N[C@@](C)(CCCCN)C(=O)NCC(=O)NCC(N)=O)C(C)C)C(C)C)[C@@H](C)CC)C(=O)O
B2: SEQ ID NO 157 (peptide)
peptide: H[Aib]EGS[αMeF]TSDV[αMeS]S[αMeF]LEGEAAK([γGlu-γGlu-γGlu-Stearoyl])E[αMeF]IA[αMeF]VV[αMeK]GG-NH2
modifications: N-terminus assumed
SMILES: CCCCCCCCCCCCCCCCCC(=O)N[C@@H](CCC(=O)N[C@@H](CCC(=O)N[C@@H](CCC(=O)NCCCC[C@H](NC(=O)[C@H](C)NC(=O)[C@H](C)NC(=O)[C@H](CCC(=O)O)NC(=O)CNC(=O)[C@H](CCC(=O)O)NC(=O)[C@H](CC(C)C)NC(=O)[C@](C)(Cc1ccccc1)NC(=O)[C@H](CO)NC(=O)[C@](C)(CO)NC(=O)[C@@H](NC(=O)[C@H](CC(=O)O)NC(=O)[C@H](CO)NC(=O)[C@@H](NC(=O)[C@](C)(Cc1ccccc1)NC(=O)[C@H](CO)NC(=O)CNC(=O)[C@H](CCC(=O)O)NC(=O)C(C)(C)NC(=O)[C@@H](N)Cc1c[nH]cn1)[C@@H](C)O)C(C)C)C(=O)N[C@@H](CCC(=O)O)C(=O)N[C@@](C)(Cc1ccccc1)C(=O)N[C@H](C(=O)N[C@@H](C)C(=O)N[C@@](C)(Cc1ccccc1)C(=O)N[C@H](C(=O)N[C@H](C(=O)N[C@@](C)(CCCCN)C(=O)NCC(=O)NCC(N)=O)C(C)C)C(C)C)[C@@H](C)CC)C(=O)O)C(=O)O)C(=O)O
B3: SEQ ID NO 159 (peptide)
peptide: H[Aib]EGS[αMeF]TSDV[αMeS]S[αMeF]LEGEAAK([Ahx-Ahx-Stearoyl])E[αMeF]IA[αMeF]VV[αMeK]GG-NH2
modifications: N-terminus assumed
SMILES: CCCCCCCCCCCCCCCCCC(=O)NCCCCCC(=O)NCCCCCC(=O)NCCCC[C@H](NC(=O)[C@H](C)NC(=O)[C@H](C)NC(=O)[C@H](CCC(=O)O)NC(=O)CNC(=O)[C@H](CCC(=O)O)NC(=O)[C@H](CC(C)C)NC(=O)[C@](C)(Cc1ccccc1)NC(=O)[C@H](CO)NC(=O)[C@](C)(CO)NC(=O)[C@@H](NC(=O)[C@H](CC(=O)O)NC(=O)[C@H](CO)NC(=O)[C@@H](NC(=O)[C@](C)(Cc1ccccc1)NC(=O)[C@H](CO)NC(=O)CNC(=O)[C@H](CCC(=O)O)NC(=O)C(C)(C)NC(=O)[C@@H](N)Cc1c[nH]cn1)[C@@H](C)O)C(C)C)C(=O)N[C@@H](CCC(=O)O)C(=O)N[C@@](C)(Cc1ccccc1)C(=O)N[C@H](C(=O)N[C@@H](C)C(=O)N[C@@](C)(Cc1ccccc1)C(=O)N[C@H](C(=O)N[C@H](C(=O)N[C@@](C)(CCCCN)C(=O)NCC(=O)NCC(N)=O)C(C)C)C(C)C)[C@@H](C)CC
B4: SEQ ID NO 158 (peptide)
peptide: H[Aib]EGS[αMeF]TSDV[αMeS]S[αMeF]LEGEAAK([Ahx-Stearoyl])E[αMeF]IA[αMeF]VV[αMeK]GG-NH2
modifications: N-terminus assumed
SMILES: CCCCCCCCCCCCCCCCCC(=O)NCCCCCC(=O)NCCCC[C@H](NC(=O)[C@H](C)NC(=O)[C@H](C)NC(=O)[C@H](CCC(=O)O)NC(=O)CNC(=O)[C@H](CCC(=O)O)NC(=O)[C@H](CC(C)C)NC(=O)[C@](C)(Cc1ccccc1)NC(=O)[C@H](CO)NC(=O)[C@](C)(CO)NC(=O)[C@@H](NC(=O)[C@H](CC(=O)O)NC(=O)[C@H](CO)NC(=O)[C@@H](NC(=O)[C@](C)(Cc1ccccc1)NC(=O)[C@H](CO)NC(=O)CNC(=O)[C@H](CCC(=O)O)NC(=O)C(C)(C)NC(=O)[C@@H](N)Cc1c[nH]cn1)[C@@H](C)O)C(C)C)C(=O)N[C@@H](CCC(=O)O)C(=O)N[C@@](C)(Cc1ccccc1)C(=O)N[C@H](C(=O)N[C@@H](C)C(=O)N[C@@](C)(Cc1ccccc1)C(=O)N[C@H](C(=O)N[C@H](C(=O)N[C@@](C)(CCCCN)C(=O)NCC(=O)NCC(N)=O)C(C)C)C(C)C)[C@@H](C)CC
B5: SEQ ID NO 156 (peptide)
peptide: H[Aib]EGS[αMeF]TSDV[αMeS]S[αMeF]LEGEAAK([γGlu-γGlu-Stearoyl])E[αMeF]IA[αMeF]VV[αMeK]GG-NH2
modifications: N-terminus assumed
SMILES: CCCCCCCCCCCCCCCCCC(=O)N[C@@H](CCC(=O)N[C@@H](CCC(=O)NCCCC[C@H](NC(=O)[C@H](C)NC(=O)[C@H](C)NC(=O)[C@H](CCC(=O)O)NC(=O)CNC(=O)[C@H](CCC(=O)O)NC(=O)[C@H](CC(C)C)NC(=O)[C@](C)(Cc1ccccc1)NC(=O)[C@H](CO)NC(=O)[C@](C)(CO)NC(=O)[C@@H](NC(=O)[C@H](CC(=O)O)NC(=O)[C@H](CO)NC(=O)[C@@H](NC(=O)[C@](C)(Cc1ccccc1)NC(=O)[C@H](CO)NC(=O)CNC(=O)[C@H](CCC(=O)O)NC(=O)C(C)(C)NC(=O)[C@@H](N)Cc1c[nH]cn1)[C@@H](C)O)C(C)C)C(=O)N[C@@H](CCC(=O)O)C(=O)N[C@@](C)(Cc1ccccc1)C(=O)N[C@H](C(=O)N[C@@H](C)C(=O)N[C@@](C)(Cc1ccccc1)C(=O)N[C@H](C(=O)N[C@H](C(=O)N[C@@](C)(CCCCN)C(=O)NCC(=O)NCC(N)=O)C(C)C)C(C)C)[C@@H](C)CC)C(=O)O)C(=O)O

Starred links: 1 amine or outer side, 2 acyl side, 3 side chain; linkers in the order of their positions; H or OH if unused. Non-standard residues stand in square brackets, D forms with d. Groups on a side chain read outwards from the residue. Primed or numbered codes have the meaning given here. No end group written: not given here. *: point of attachment. γGlu = O=C(O)[C@H](CCC(=O)[*:2])N[*:1]; Stearoyl = CCCCCCCCCCCCCCCCCC(=O)*; αMeF = C[C@](N)(Cc1ccccc1)C(=O)O; αMeK = C[C@](N)(CCCCN)C(=O)O; αMeS = C[C@](N)(CO)C(=O)O; PEG2′ = not defined here; Aib = CC(C)(N)C(=O)O; Ahx = NCCCCCC(=O)O

The first assay concerns the target GLP-1 receptor (GLP-1R) (human, UniProt P43220 24-463). Description: cell-based or functional assay.
Regarding B1, the “Primary assay EC50 (cAMP), GLP-1R n1” value stood at 290 pM; the “Primary assay EC50 (cAMP), GLP-1R n2” value stood at 190 pM; the “Primary assay EC50 (cAMP), Mean pM GLP-1R” value came to 238 pM.

In the case of B2, the “Primary assay EC50 (cAMP), GLP-1R n1” value was 240 pM; the “Primary assay EC50 (cAMP), GLP-1R n2” value worked out at 220 pM; the “Primary assay EC50 (cAMP), Mean pM GLP-1R” value is 227 pM.

Consider H[Aib]EGS[αMeF]TSDV[αMeS]S[αMeF]LEGEAAK([PEG2′-PEG2′-PEG2′-Stearoyl])E[αMeF]IA[αMeF]VV[αMeK]GG-NH2 [SEQ ID NO 154], for which the “Primary assay EC50 (cAMP), GLP-1R n1” value came to 2.8 pM; the “Primary assay EC50 (cAMP), GLP-1R n2” value was found to be 2.3 pM; the “Primary assay EC50 (cAMP), Mean pM GLP-1R” value worked out at 2.5 pM.

For B3, the “Primary assay EC50 (cAMP), GLP-1R n1” value turned out to be 280 pM; the “Primary assay EC50 (cAMP), GLP-1R n2” value is 230 pM; the “Primary assay EC50 (cAMP), Mean pM GLP-1R” value was determined as 254 pM.

Consider B4, for which the “Primary assay EC50 (cAMP), GLP-1R n1” value turned out to be 140 pM; the “Primary assay EC50 (cAMP), GLP-1R n2” value is 160 pM; the “Primary assay EC50 (cAMP), Mean pM GLP-1R” value was 148 pM.

With B5, the “Primary assay EC50 (cAMP), GLP-1R n1” value stood at 110 pM; the “Primary assay EC50 (cAMP), GLP-1R n2” value turned out to be 100 pM; the “Primary assay EC50 (cAMP), Mean pM GLP-1R” value is 105 pM.

For the next assay, the target named is glucagon receptor (GCGR) (human, UniProt P47871 26-477). Description: cell-based or functional assay.
Sequence of glucagon receptor (GCGR) (P47871 26-477): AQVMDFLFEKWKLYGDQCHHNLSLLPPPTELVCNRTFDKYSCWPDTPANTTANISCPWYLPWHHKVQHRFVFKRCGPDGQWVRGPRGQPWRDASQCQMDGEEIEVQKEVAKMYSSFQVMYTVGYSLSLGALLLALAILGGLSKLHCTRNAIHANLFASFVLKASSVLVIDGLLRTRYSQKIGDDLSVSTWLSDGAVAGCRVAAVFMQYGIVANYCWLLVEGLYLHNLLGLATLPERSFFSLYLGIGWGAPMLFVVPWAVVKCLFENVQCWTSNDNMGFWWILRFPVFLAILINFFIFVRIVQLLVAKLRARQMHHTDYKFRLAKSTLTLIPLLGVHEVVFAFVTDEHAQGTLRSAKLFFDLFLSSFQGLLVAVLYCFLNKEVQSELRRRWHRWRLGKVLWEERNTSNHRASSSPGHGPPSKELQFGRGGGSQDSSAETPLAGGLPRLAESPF
In the case of B1, the “Primary assay EC50 (cAMP), Gluc-R, first run” value came to 28 nM and the “Primary assay EC50 (cAMP), Gluc-R, second run” value came out at 28 nM.

For B2, the “Primary assay EC50 (cAMP), Gluc-R, first run” value stood at 26 nM and the “Primary assay EC50 (cAMP), Gluc-R, second run” value came to 26 nM.

As for H[Aib]EGS[αMeF]TSDV[αMeS]S[αMeF]LEGEAAK([PEG2′-PEG2′-PEG2′-Stearoyl])E[αMeF]IA[αMeF]VV[αMeK]GG-NH2 [SEQ ID NO 154], the “Primary assay EC50 (cAMP), Gluc-R, first run” value amounted to 26 nM and the “Primary assay EC50 (cAMP), Gluc-R, second run” value was 26 nM.

In the case of B3, the “Primary assay EC50 (cAMP), Gluc-R, first run” value amounted to 27 nM and the “Primary assay EC50 (cAMP), Gluc-R, second run” value was found to be 27 nM.

Turning to B4, the “Primary assay EC50 (cAMP), Gluc-R, first run” value is 28 nM and the “Primary assay EC50 (cAMP), Gluc-R, second run” value amounted to 28 nM.

B5: the “Primary assay EC50 (cAMP), Gluc-R, first run” value came out at 27 nM and the “Primary assay EC50 (cAMP), Gluc-R, second run” value was 27 nM.

Another assay concerns the target T1, glucose-dependent insulinotropic peptide (gastric inhibitory polypeptide) receptor (GIPR) (human, UniProt P48546 22-466).
T1 sequence (looked up): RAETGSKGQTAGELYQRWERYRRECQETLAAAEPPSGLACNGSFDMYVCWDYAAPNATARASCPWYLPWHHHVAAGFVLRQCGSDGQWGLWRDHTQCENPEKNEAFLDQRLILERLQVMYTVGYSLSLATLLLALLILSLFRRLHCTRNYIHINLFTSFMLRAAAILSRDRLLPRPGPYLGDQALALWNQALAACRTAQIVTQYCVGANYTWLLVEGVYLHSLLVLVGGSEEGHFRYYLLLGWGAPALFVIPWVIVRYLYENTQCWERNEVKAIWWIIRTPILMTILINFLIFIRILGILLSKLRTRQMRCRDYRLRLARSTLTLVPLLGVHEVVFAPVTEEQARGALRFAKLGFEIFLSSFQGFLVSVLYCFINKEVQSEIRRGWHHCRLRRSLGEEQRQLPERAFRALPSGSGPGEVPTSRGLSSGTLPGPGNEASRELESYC
Description: cell-based or functional assay.
In the case of B1, the “Primary assay EC50 (cAMP), GIP-R, first run” value came out at 28 nM and the “Primary assay EC50 (cAMP), GIP-R, second run” value worked out at 28 nM.

Take B2: the “Primary assay EC50 (cAMP), GIP-R, first run” value amounted to 26 nM and the “Primary assay EC50 (cAMP), GIP-R, second run” value was 26 nM.

On to H[Aib]EGS[αMeF]TSDV[αMeS]S[αMeF]LEGEAAK([PEG2′-PEG2′-PEG2′-Stearoyl])E[αMeF]IA[αMeF]VV[αMeK]GG-NH2 [SEQ ID NO 154], for which the “Primary assay EC50 (cAMP), GIP-R, first run” value came to 26 nM and the “Primary assay EC50 (cAMP), GIP-R, second run” value is 26 nM.

Consider B3, for which the “Primary assay EC50 (cAMP), GIP-R, first run” value was 27 nM and the “Primary assay EC50 (cAMP), GIP-R, second run” value is 27 nM.

Take B4: the “Primary assay EC50 (cAMP), GIP-R, first run” value was 28 nM and the “Primary assay EC50 (cAMP), GIP-R, second run” value is 28 nM.

As to B5, the “Primary assay EC50 (cAMP), GIP-R, first run” value was 27 nM and the “Primary assay EC50 (cAMP), GIP-R, second run” value turned out to be 27 nM.
